In patent publication US11319530B2, “Host cells and systems for membrane protein expression” (President and Fellows of Harvard College, priority 2015, dated 2022):

B5: FLAG-tagged E. coli DsbAC33A (pFH442: pFH441 C33A-FLAG) (enzyme, UniProt P0AEG4 20-208, looked up)
chain: AQYEDGKQYTTLEKPVAGAPQVLEFFSFFCPHAYQFEEVLHISDNVKKKLPEGVKMTKYHVNFMGGDLGKDLTQAWAVAMALGVEDKVTVPLFEGVQKTQTIRSASDIRDVFINAGIKGEEYDAAWNSFVVKSLVAQQEKAAADVQLRGVPAMFVNGKYQLNPQGMDTSNMDVFVQQYADTVKYLSEKK
notes: by common usage C33 of DsbA is counted on the mature (periplasmic) protein, not on the precursor; Expressed from pBAD43 in E. coli; also called C33A mutant of DsbA; not shown: FLAG tag

Legend:
[1] = biological target: T1, rat VKORc1ΔAAR expressed in FSH231 (Rattus norvegicus, UniProt Q6TEK4, DEL31-33); assay: blue/white agar assay in 384 well plates using the β-Gal^dbs reporter (dose-dependent inhibition of VKORc1); assay type: cell-based; details: FIG. 4 Panel A; for dose-dependent inhibition of VKORc1: rat VKORc1ΔAAR expressed in E. coli FSH231 (ΔdsbB, yidCT362I, hsIVC160Y)
T1 construct: expressed in transfected cells; host or cells: E. coli FSH231 (ΔdsbB, yidCT362I, hslVC160Y, malF-lacZ102 reporter), pTrc99a plasmid
T1 sequence (Q6TEK4 with tags, fused parts or gaps DEL31-33): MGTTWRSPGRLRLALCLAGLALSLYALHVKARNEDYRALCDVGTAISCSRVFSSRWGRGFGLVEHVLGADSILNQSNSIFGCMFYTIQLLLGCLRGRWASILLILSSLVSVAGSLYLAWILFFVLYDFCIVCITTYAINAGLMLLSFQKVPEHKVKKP

[2] = biological target: B5; assay: non-reducing SDS-PAGE of TCA-precipitated proteins of FSH231, immunoblot with anti-T7 or anti-FLAG; mixed disulfide
[3] = biological target: B5; assay: non-reducing SDS-PAGE immunoblot; mixed disulfide
[4] = biological target: B5; assay: non-reducing SDS-PAGE of TCA-precipitated proteins of FSH231, immunoblot with anti-T7 or anti-FLAG
[5] = biological target: the molecule itself; assay: immunoblot, FIG. 4 Panel C
VKORc1ΔAAR, G60D = biological target: T2, VKORc1ΔAAR, G60D (Rattus norvegicus, UniProt Q6TEK4, C16A/C85A/C96A/DEL31-33/G60D); assay: motility assay, low agar motility plates of FSH231; assay type: cell-based; details: FSH231 co-expressing VKORc1ΔAAR, G60D and DsbAC33A, in the presence of DsbAwt; FIG. 4 Panel B
T2 construct: expressed in transfected cells; host or cells: E. coli FSH231 (ΔdsbB, yidCT362I, hslVC160Y), pTrc99a plasmid, co-transformed with pBAD43 (empty, or carrying DsbA or DsbAC33A)
T2 sequence (Q6TEK4 with tags, fused parts or gaps C16A/DEL31-33/G60D/C85A/C96A): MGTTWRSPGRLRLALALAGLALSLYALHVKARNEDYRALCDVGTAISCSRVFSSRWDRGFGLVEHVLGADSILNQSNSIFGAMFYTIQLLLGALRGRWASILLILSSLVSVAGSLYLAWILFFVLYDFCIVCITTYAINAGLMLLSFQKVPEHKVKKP
Method: Bacterial motility was assayed by stabbing a colony into 0.3% minimal medium Agar plates containing M63 salts, 0.2% Glucose, IPTG, and carbenicillin. Motility was examined after two days of growth at 30 C. When using arabinose to induce expression from pBAD promoter, 0.5% glycerol was used instead of glucose in addition to 0.1% NZ to enhance motility.
As expected, the function of VKORc1ΔAAR in disulfide bond formation was dependent on E. coli DsbA, the presumed substrate of the now functional VKORc1ΔAAR. To determine whether VKORc1ΔAAR interacts directly with DsbA in vivo, we used a C33A mutant of DsbA which forms a detectable stable complex with DsbB and asked whether a similar scenario occurs with VKORc1ΔAAR (23). We used the highly expressed VKORc1ΔAAR, G60D lacking all nonessential cysteines expressed in a ΔdsbB, yidCT362I, hsIVC160Y strain (FSH231). […] When TCA-precipitated proteins of FSH231 strain expressing both T7-tagged VKORc1ΔAAR, G60D and FLAG-tagged DsbAC33A are run on a non-reducing SDS-PAGE and probed by either anti-T7 or FLAG tags antibodies, a VKORc1-DsbA complex band around 40 kDa can be seen (FIG. 4., Panel C) that is DTT-sensitive. The complex formation is also observed when using VKORc1 lacking C51, but disappears in the absence of C46 or C132, unless the removal of C132 is accompanied by the removal of C51 (FIG. 4., Panel C). […]

O=C1c2ccccc2C(=O)C1c1ccc(Br)cc1 [bromindione]
dose-dependent inhibition of VKORc1 [1]: inhibited
inhibitory effect compared with warfarin ([1]; rat VKORc1ΔAAR expressed in E. coli FSH231): stronger inhibitory effects than warfarin

CC(=O)CC(c1ccccc1)c1c(O)c2ccccc2oc1=O (stereo not drawn) [warfarin]
dose-dependent inhibition of VKORc1 [1]: inhibited

B1: T7-tagged rat VKORc1ΔAAR, G60D lacking all nonessential cysteines (pFH436: rat VKORc1 C16A ΔA31AR G60D C85A C96A-linker-T7 tag) (enzyme)
chain: MGTTWRSPGRLRLALALAGLALSLYALHVKARNEDYRALCDVGTAISCSRVFSSRWDRGFGLVEHVLGADSILNQSNSIFGAMFYTIQLLLGALRGRWASILLILSSLVSVAGSLYLAWILFFVLYDFCIVCITTYAINAGLMLLSFQKVPEHKVKKPGTGGGSGGGSGS
notes: Expressed in E. coli FSH231 (ΔdsbB, yidCT362I, hslVC160Y); not shown: C-terminal T7 tag
binding result [2]: binds

B2: rat VKORc1 C16A C51A ΔA31AR G60D C85A C96A C132A-linker-T7 tag (pFH440) (enzyme)
chain: MGTTWRSPGRLRLALALAGLALSLYALHVKARNEDYRALCDVGTAISASRVFSSRWDRGFGLVEHVLGADSILNQSNSIFGAMFYTIQLLLGALRGRWASILLILSSLVSVAGSLYLAWILFFVLYDFAIVCITTYAINAGLMLLSFQKVPEHKVKKPGTGGGSGGGSGS
notes: also called VKORc1 with removal of C132 accompanied by the removal of C51; not shown: C-terminal T7 tag
binding result [3]: binds

B3: rat VKORc1 C16A C51A ΔA31AR G60D C85A C96A-linker-T7 tag (pFH438) (enzyme)
chain: MGTTWRSPGRLRLALALAGLALSLYALHVKARNEDYRALCDVGTAISASRVFSSRWDRGFGLVEHVLGADSILNQSNSIFGAMFYTIQLLLGALRGRWASILLILSSLVSVAGSLYLAWILFFVLYDFCIVCITTYAINAGLMLLSFQKVPEHKVKKPGTGGGSGGGSGS
notes: also called VKORc1 lacking C51; not shown: C-terminal T7 tag
binding result [3]: binds

B4: rat VKORc1 C16A ΔA31AR G60D C85A C96A C132A-linker-T7 tag (pFH439) (enzyme)
chain: MGTTWRSPGRLRLALALAGLALSLYALHVKARNEDYRALCDVGTAISCSRVFSSRWDRGFGLVEHVLGADSILNQSNSIFGAMFYTIQLLLGALRGRWASILLILSSLVSVAGSLYLAWILFFVLYDFAIVCITTYAINAGLMLLSFQKVPEHKVKKPGTGGGSGGGSGS
notes: also called VKORc1 in the absence of C132; not shown: C-terminal T7 tag
binding result [4]: no binding

B5
binding result [5]: binds

B6: DsbAC33A: C33A mutant of E. coli DsbA, expressed from pBAD43; forms mixed disulfide with VKORc1 (protein)
chain: AQYEDGKQYTTLEKPVAGAPQVLEFFSFFCPHAYQFEEVLHISDNVKKKLPEGVKMTKYHVNFMGGDLGKDLTQAWAVAMALGVEDKVTVPLFEGVQKTQTIRSASDIRDVFINAGIKGEEYDAAWNSFVVKSLVAQQEKAAADVQLRGVPAMFVNGKYQLNPQGMDTSNMDVFVQQYADTVKYLSEKK
modifications: left off: small tags and cut ends
inhibition of VKORc1 function (motility) (VKORc1ΔAAR, G60D): inhibits the function of VKORc1
